Experiments:
Test in all cases: cell_activity
[1] = tested on: IL-1-FokI C3H F4 HAQRCG (pDAB4344) F4 zinc coordinating region HAQRCG (engineered); settings: pDAB4344, tobacco BY2-380
[2] = tested on: IL-1-FokI C2H2 (pDAB4341/pDAB4323) (engineered); settings: pDAB4341, tobacco BY2-380; pDAB4323 (non-plant codon FokI) 5.53
[3] = tested on: IL-1-FokI C3H F4 HTKRCGGG (pDAB4343) F4 zinc coordinating region HTKRCGGG (engineered); settings: pDAB4343, tobacco BY2-380
[4] = tested on: IL-1-FokI C3H F2 HIRTGC (pDAB4346/pDAB4356) F2 zinc coordinating region HIRTGC (engineered); settings: pDAB4346, tobacco BY2-380 intrachromosomal recombination; pDAB4356 also active in interchromosomal HR
[5] = tested on: IL-1-FokI C3H F4 HTKIC (pDAB4342) F4 zinc coordinating region HTKIC (engineered); settings: pDAB4342, tobacco BY2-380

Substance: IL-1-L0-FokI site, 4 tandem repeats
- activity (GFP expression) [1]: 4.39
- activity (GFP expression) [2]: 6.37
- activity (GFP expression) [3]: 7.57
- activity (GFP expression) [4]: 9.5
- activity (GFP expression) [5]: 0.25

Reference: patent US20080182332
